From patent US20080300206

Key:
[1] = target: recombinant wild-type human alpha-synuclein
[2] = target: alpha synuclein familial mutant A30P
[3] = target: alpha synuclein familial mutant E46K
[4] = target: alpha synuclein familial mutant A53T

B1: IKBKB (protein)
chain: MSWSPSLTTQTCGAWEMKERLGTGGFGNVIRWHNQETGEQIAIKQCRQELSPRNRERWCLEIQIMRRLTHPNVVAARDVPEGMQNLAPNDLPLLAMEYCQGGDLRKYLNQFENCCGLREGAILTLLSDIASALRYLHENRIIHRDLKPENIVLQQGEQRLIHKIIDLGYAKELDQGSLCTSFVGTLQYLAPELLEQQKYTVTVDYWSFGTLAFECITGFRPFLPNWQPVQWHSKVRQKSEVDIVVSEDLNGTVKFSSSLPYPNNLNSVLAERLEKWLQLMLMWHPRQRGTDPTYGPNGCFKALDDILNLKLVHILNMVTGTIHTYPVTEDESLQSLKARIQQDTGIPEEDQELLQEAGLALIPDKPATQCISDGKLNEGHTLDMDLVFLFDNSKITYETQISPRPQPESVSCILQEPKRNLAFFQLRKVWGQVWHSIQTLKEDCNRLQQGQRAAMMNLLRNNSCLSKMKNSMASMSQQLKAKLDFFKTSIQIDLEKYSEQTEFGITSDKLLLAWREMEQAVELCGRENEVKLLVERMMALQTDIVDLQRSPMGRKQGGTLDDLEEQARELYRRLREKPRDQRTEGDSQEMVRLLLQAIQSFEKKVRVIYTQLSKTVVCKQKALELLPKVEEVVSLMNEDEKTVVRLQEKRQKELWNLLKIACSKVRGPVSGSPDSMNASRLSQPGQLMSQPSTASNSLPEPAKKSEELVAEAHNLCTLLENAIQDTVREQDQSFTALDWSWLQTEEEEHSCLEQAS
[1]
  in vitro kinase reaction, phosphorylation of alpha-synuclein: shown to be incapable of directly phosphorylating alpha-synuclein

B2: Polo like kinase 2 (PLK2) (protein)
chain: MELLRTITYQPAASTKMCEQALGKGCGADSKKKRPPQPPEESQPPQSQAQVPPAAPHHHHHHSHSGPEISRIIVDPTTGKRYCRGKVLGKGGFAKCYEMTDLTNNKVYAAKIIPHSRVAKPHQREKIDKEIELHRILHHKHVVQFYHYFEDKENIYILLEYCSRRSMAHILKARKVLTEPEVRYYLRQIVSGLKYLHEQEILHRDLKLGNFFINEAMELKVGDFGLAARLEPLEHRRRTICGTPNYLSPEVLNKQGHGCESDIWALGCVMYTMLLGRPPFETTNLKETYRCIREARYTMPSSLLAPAKHLIASMLSKNPEDRPSLDDIIRHDFFLQGFTPDRLSSSCCHTVPDFHLSSPAKNFFKKAAAALFGGKKDKARYIDTHNRVSKEDEDIYKLRHDLKKTSITQQPSKHRTDEELQPPTTTVARSGTPAVENKQQIGDAIRMIVRGTLGSCSSSSECLEDSTMGSVADTVARVLRGCLENMPEADCIPKEQLSTSFQWVTKWVDYSNKYGFGYQLSDHTVGVLFNNGAHMSLLPDKKTVHYYAELGQCSVFPATDAPEQFISQVTVLKYFSHYMEENLMDGGDLPSVTDIRRPRLYLLQWLKSDKALMMLFNDGTFQVNFYHDHTKIIICSQNEEYLLTYINEDRISTTFRLTTLLMSGCSSELKNRMEYALNMLLQRCN
Beta synuclein, Q16143
  PLK2 activity in vitro, autoradiography: minimally against beta synuclein
[2]
  PLK2 activity in vitro, autoradiography: the mutant alpha-synucleins were phosphorylated more at a given concentration (especially at lower concentrations) than WT
[1]
  Fold Change in Percent Synuclein Phosphorylation, HEK-293 overexpression: 21.2 fold
  PLK2 activity in vitro, autoradiography: PLK2 was found to be more active against wild-type alpha synuclein than beta synuclein
  Proportion of total synuclein that is phoshorylated at ser-129, HEK-293 overexpression, ELISA: 42.3%
  S129 phosphorylation, immunoblot (11A5), kinase:AS 1:200 molar: Prominent signals came from GRK6, CKI, CKII and PLK2
  S129 phosphorylation, immunoblot (11A5), rank of signal: CKI>GRK6>PLK2>GRK4>GRK5>GRK2
  extent of S129 phosphorylation by mass spectrometry after co-expression in bacteria: more than 95% phosphorylated
  in vitro biochemical assay, phosphorylation of synuclein: PLK2 and PLK3 having extremely robust phosphorylation of synuclein
  in vitro kinase reaction, phosphorylation of alpha-synuclein at serine 129: capable of phosphorylating alpha-synuclein specifically at serine 129 and did not phosphorylate serine 87 in vitro
  phospho ser-129 level in vitro, normalised for molarity: roughly equivalent levels of phospho ser-129 between CKI, GRK6 and PLK2
[3]
  PLK2 activity in vitro, autoradiography: the mutant alpha-synucleins were phosphorylated more at a given concentration (especially at lower concentrations) than WT
[4]
  PLK2 activity in vitro, autoradiography: the mutant alpha-synucleins were phosphorylated more at a given concentration (especially at lower concentrations) than WT
